In IntAct's records for PubMed 19416828:

B1: Splicing factor rtf2 (Schizosaccharomyces pombe (strain ATCC 38366 / 972)), Q10154 (parent)
chain: MGNDGGSLPTRNELVKEPGKVPPLDIDFKRSVKSSQFSQCAITDEPLYPPIVSCGLGKLYNKASILQMLLDRSSVPKSPSHIKSLKDVVQLQVELDDSGKVLWLCPITRHVMSDTYQFAYIVPCGHVFEYSALKQFGEKMCFQCNQVYEEKDVIPINPNAEQLKTLSKRLLDLALSEKTHSLNKASKKSNKNGDKKRKHVSKSNSKHAKHELRTNRMLDGENVKSETSVTDMERVKRVKI
partner: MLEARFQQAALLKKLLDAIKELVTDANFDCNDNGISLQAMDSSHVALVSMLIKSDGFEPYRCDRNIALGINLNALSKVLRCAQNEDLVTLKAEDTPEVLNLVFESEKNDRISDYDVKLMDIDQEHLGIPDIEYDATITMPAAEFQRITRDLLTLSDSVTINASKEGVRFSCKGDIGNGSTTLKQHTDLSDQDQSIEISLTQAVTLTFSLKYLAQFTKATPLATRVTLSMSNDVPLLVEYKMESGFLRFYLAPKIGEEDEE

Variants of: B1
Conditions: with pcna_schpo pcn1, Q03392

Variant	effect of a mutation on the interaction
MGNDGGSLPTRNELVKEPGKVPPLDIDFKRSVKSSQFSQCAITDEPLYPPIVSCGLGKLYNKASILQMLLDRSSVPKSPSHIKSLKDVVQLQVELDDSGKVLWLCPITRHVMSDTYQFAYIVPCGHVFEYSALKQFGEKMGFQCNQVYEEKDVIPINPNAEQLKTLSKRLLDLALSEKTHSLNKASKKSNKNGDKKRKHVSKSNSKHAKHELRTNRMLDGENVKSETSVTDMERVKRVKI [C141G]	disrupting interaction
